From patent US20250289897A1 (Eli Lilly, published 2025)
Values belong to the binder of their own block, whether it stands above or below them.

How the values were obtained:
[1] = biological target: T1, Recombinant LEPR extracellular domain fused to hIgG1-Fc (human LEPR ECD-TEV-Fc) (human); assay: ELISA, plate coated with human LEPR ECD (SEQ ID NO:30) at 2 ug/mL, antibody titrated 1:3 from 50 ug/mL, goat anti-human kappa AP detection, OD560
T1 construct: The entry holds ECD, TEV site, human IgG1 Fc and a His tag in one chain; also called LEPR-Fc; hLEPR-TEV-hIgG1Fc
T1 sequence (chain, as listed by the source limits assumed): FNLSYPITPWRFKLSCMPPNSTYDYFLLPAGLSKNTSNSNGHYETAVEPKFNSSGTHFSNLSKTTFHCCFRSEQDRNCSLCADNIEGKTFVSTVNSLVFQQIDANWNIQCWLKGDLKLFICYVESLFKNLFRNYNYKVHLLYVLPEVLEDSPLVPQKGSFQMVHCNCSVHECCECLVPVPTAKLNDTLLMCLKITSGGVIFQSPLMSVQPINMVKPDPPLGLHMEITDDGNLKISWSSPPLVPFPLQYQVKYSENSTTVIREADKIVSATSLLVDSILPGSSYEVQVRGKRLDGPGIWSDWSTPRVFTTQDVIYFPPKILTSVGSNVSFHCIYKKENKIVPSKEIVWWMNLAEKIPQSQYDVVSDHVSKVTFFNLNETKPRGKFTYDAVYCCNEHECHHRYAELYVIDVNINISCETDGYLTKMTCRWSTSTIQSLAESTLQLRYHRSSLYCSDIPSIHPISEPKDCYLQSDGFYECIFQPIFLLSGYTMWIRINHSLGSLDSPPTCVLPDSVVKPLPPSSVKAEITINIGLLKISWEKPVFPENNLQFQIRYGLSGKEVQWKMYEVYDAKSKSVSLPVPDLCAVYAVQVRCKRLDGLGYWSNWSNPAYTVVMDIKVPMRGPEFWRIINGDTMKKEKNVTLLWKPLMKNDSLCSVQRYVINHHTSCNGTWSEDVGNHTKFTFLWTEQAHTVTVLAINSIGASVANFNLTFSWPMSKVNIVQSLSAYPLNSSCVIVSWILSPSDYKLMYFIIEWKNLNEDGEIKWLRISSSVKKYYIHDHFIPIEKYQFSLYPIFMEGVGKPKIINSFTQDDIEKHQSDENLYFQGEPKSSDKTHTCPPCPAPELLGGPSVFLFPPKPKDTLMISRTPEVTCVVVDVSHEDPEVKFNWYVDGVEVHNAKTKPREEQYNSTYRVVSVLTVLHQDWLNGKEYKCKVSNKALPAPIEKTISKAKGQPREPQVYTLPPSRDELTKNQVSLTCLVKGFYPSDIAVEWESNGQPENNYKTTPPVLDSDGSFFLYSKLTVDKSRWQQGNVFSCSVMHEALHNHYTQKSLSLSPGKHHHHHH
Experimental: The plate was then washed. Antibodies were titrated, starting at 50 μg/mL in Casein with 1:3 serial dilutions across the plate. Plate was incubated at RT for 1 hr. The plate is then washed.
The mixture was incubated at RT for 1 hr. The plate is then washed.
The curves indicate relative binding of IgG antibodies to human LEPR. The LEPR is bound to an ELISA plate and the antibodies are titrated in 3-fold increments starting at 50 μg/mL.

[2] = biological target: T2, human FcγRIIb (CD32b) extracellular domain (human, UniProt P31994 43-217); assay: SPR at 25 C (Biacore T200), antibody captured on Protein A chip, FcγR ECD as analyte, steady state; average of 3, SD 0.17
T2 construct: extracellular domain
T2 sequence (looked up): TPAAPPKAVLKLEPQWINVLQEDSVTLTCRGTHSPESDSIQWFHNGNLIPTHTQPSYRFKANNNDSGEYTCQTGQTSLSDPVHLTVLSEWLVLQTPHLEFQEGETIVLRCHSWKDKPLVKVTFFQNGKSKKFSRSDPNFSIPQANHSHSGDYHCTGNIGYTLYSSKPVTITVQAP
Experimental: (§1) Briefly, the surfaces of all 4 flow cells were activated by injecting a 1:1 mixture of EDC/NHS for 7 minutes at 10 μL/minute. […] Un-reacted sites were blocked with a 7-minute injection of ethanolamine at 10 μL/minute. Injections of 2×10 μL of glycine pH 1.5 were used to remove any noncovalently associated protein.
(§2) For FcγRIIa, FcγRIIb, and FcγRIIIa binding, antibodies were diluted to 5 μg/mL in running buffer, and approximately 500 RU is captured in flow cells 2 through 4 (RUcaptured). FC1 is the reference flow cell. […] Duplicate injections of each concentration were injected over all FCs at 40 L/minute for 60 seconds followed by a 120 second dissociation phase. Regeneration was performed by injecting 15μL of 10 mM glycine pH 1.5 at 30 μL/minute over all FCs.
(§3) Reference-subtracted data was collected as FC2-FC1, FC3-FC1, and FC4-FC1. The measurements were obtained at 25° C. The affinity (KD) was calculated using the steady state equilibrium analysis with the Scrubber 2 Biacore® Evaluation Software.

[3] = biological target: T3, human FcγRI (CD64) extracellular domain (human, UniProt P12314 16-292); assay: SPR at 25 C (Biacore T200), antibody captured on Protein A chip, FcγR ECD as analyte; average of 3, SD 0.4
T3 construct: extracellular domain; also called FcγRI ECD
T3 sequence (P12314 16-292): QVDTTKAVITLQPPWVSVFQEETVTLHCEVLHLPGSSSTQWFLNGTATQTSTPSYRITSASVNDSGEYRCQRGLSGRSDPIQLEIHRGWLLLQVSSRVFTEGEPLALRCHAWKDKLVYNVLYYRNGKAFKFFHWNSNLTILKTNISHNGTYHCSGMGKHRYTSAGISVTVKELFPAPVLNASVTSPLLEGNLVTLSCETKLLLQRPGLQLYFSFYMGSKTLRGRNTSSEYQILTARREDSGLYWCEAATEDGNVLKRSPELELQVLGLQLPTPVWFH
Experimental: as §1
For FcγRI binding, antibodies were diluted to 2.5 g/mL in running buffer (1x HBS-EP+, Teknova P/N H8022), and approximately 150 RU of each antibody was captured in flow cells 2 through 4 (RUcaptured). FC1 was the reference flow cell, therefore, no antibody was captured in FC1. […] Duplicate injections of each concentration were injected over all FCs at 40 μL/minute for 120 seconds followed by a 1200 second dissociation phase. Regeneration was performed by injecting 15 μL of 10 mM glycine pH 1.5 at 30 μL/minute over all FCs. Reference-subtracted data was collected as FC2-FC1, FC3-FC1, and FC4-FC1. The measurements were obtained at 25° C. The affinity (KD) was calculated using either steady state equilibrium analysis with the Scrubber 2 Biacore® Evaluation Software or a “1:1 (Langmuir) binding” model in BIA Evaluation.

[4] = biological target: T4, Human C1q (MS Biomedical) (human, UniProt P02745 23-245; P02746 28-253; P02747 29-245); assay: C1q ELISA, plate coated with the antibody at 0.19-10 ug/mL, human C1q added at 10 ug/mL, sheep anti-human C1q-HRP detection, OD450
T4 construct: the three subunits are from general knowledge; also called complement component C1q; Clq
T4 sequence (P02745 23-245 limits assumed, chain 1 of 3): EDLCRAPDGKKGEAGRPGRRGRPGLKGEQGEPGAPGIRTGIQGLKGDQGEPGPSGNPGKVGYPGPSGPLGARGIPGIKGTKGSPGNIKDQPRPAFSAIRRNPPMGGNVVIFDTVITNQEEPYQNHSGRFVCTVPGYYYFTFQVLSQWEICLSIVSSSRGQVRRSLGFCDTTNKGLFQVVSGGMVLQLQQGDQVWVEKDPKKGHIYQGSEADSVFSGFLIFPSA
T4 sequence (P02746 28-253 limits assumed, chain 2 of 3): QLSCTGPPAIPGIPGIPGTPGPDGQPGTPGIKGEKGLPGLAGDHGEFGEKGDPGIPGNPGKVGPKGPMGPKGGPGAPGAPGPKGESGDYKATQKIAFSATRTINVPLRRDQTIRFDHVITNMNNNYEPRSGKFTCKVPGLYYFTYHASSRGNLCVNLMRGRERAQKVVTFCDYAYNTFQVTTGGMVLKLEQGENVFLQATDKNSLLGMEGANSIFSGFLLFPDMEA
T4 sequence (P02747 29-245 limits assumed, chain 3 of 3): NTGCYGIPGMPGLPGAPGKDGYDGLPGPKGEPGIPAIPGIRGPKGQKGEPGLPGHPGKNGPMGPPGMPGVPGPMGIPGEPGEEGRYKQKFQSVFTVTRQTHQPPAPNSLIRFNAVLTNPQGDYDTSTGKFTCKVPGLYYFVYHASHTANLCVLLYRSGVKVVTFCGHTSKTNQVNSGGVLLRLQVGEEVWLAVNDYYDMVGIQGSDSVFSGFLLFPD
Experimental: Testing was performed in duplicate wells. The plate was sealed and incubated overnight at 4° C. The coating reagent was removed from each well and 200 μL/well of casein blocking reagent (Thermo) was added. The plate was sealed and incubated for 2 hours at room temperature (RT). Each well was washed 3 times with wash buffer (1xTBE with 0.05% Tween 20). One hundred microliters per well of Human Clq (MS Biomedical) at 10 μg/mL diluted in casein blocking reagent was added and incubated for 3 hours at RT. The plate was then washed three times with wash buffer before 100 L/well of a 1:800 dilution of Sheep anti-human C1q-HRP (Abcam #ab46191) in casein blocker was added and incubated for 1 hour at RT. The plate was washed 6 times with wash buffer, and 100 μL/well of TMB Substrate (Pierce) was added to each well and incubated for 7 minutes. One hundred microliters of 1 N HCl was added to each well to stop the reaction.

[5] = biological target: T5, human FcγRIIIA_158F (CD16a) extracellular domain (human, UniProt P08637 17-208); assay: SPR at 25 C (Biacore T200), antibody captured on Protein A chip, FcγR ECD as analyte, steady state; average of 3, SD 0.03
T5 construct: extracellular domain
T5 sequence (P08637 17-208): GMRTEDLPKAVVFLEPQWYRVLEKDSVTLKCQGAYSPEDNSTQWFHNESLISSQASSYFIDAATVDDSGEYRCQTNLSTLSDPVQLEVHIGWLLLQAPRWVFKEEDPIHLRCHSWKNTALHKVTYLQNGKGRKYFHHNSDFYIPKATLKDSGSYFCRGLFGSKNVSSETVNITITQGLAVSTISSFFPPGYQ
Experimental: as §1, §2, §3

[6] = biological target: T6, neonatal Fc receptor (FcRn) on FcRn Affinity Column Gen2 (Roche, Cat #09430857001) (UniProt P55899 24-297; P61769 21-119, limits assumed); assay: FcRn-HPLC (Roche FcRn Affinity Column Gen2), peak width at 50% peak height
Experimental: (§4) Stock antibody solutions were diluted to 1 mg/mL into 20 mM MES, 140 mM NaCl, pH5.5. […] 20 μμL antibody injections were made followed by 10 minute column wash with 20 mM MES, 140 mM NaCl, pH5.5. Antibodies were then eluted by pH gradient elution into 20 mM Tris, 140 mM NaCl, pH8.8 over 90 minutes. Chromatograms were blank-subtracted to remove baseline drift.

[7] = biological target: T6, neonatal Fc receptor (FcRn) on FcRn …; assay: FcRn-HPLC (Roche FcRn Affinity Column Gen2), pH gradient 5.5 to 8.8 over 90 minutes
Experimental: as §4

EC50 (read off the curve) [1]: ~0.07 µg/mL
B1: Antibody D (antibody, human IgG1, kappa, L234A L235A, V domains shown)
VH: EVQLLESGGGLVQPGGSLRLSCAASGFTFSSFAMSWVRQAPGKGLEWVSAISGSGGSTYSADSVRGRFTISRDNSKNTLYLQMNSLRAEDTAVYYCAKDQGDWDFLFDYWGQGTLVTVSS
VL: DIQMTQSPSFLSASVGDRVTITCRASQGISSSLAWYQQKPGKAPKLLIYTASTLQSGVPSRFSGSGSGTEFTLTISSLQPEDFATYYCQQLNYYPFTFGQGTKVEIKR
notes: Same HC as Antibody A

Kd [2]: 3.61 µM | Kd [3]: 0.0676 nM | EC50 (read off the curve) [4]: ~1 µg/mL | Kd [5]: 1560 nM | Peak Width [6]: 1.7 min | Retention Time [7]: 69.5 min
B2: Antibody A-IgG1 (antibody)
heavy: not shown
light: DIQMTQSPSFLSASVGDRVTITCRASQGISSSLAWYQQKPGKAPKLLIYTASTLQSGVPSRFSGSGSGTEFTLTISSLQPEDFATYYCQQLIYYPFTFGQGTKVEIKRTVAAPSVFIFPPSDEQLKSGTASVVCLLNNFYPREAKVQWKVDNALQSGNSQESVTEQDSKDSTYSLSSTLTLSKADYEKHKVYACEVTHQGLSSPVTKSFNRGEC
notes: there they lie 3 residues further on); also called Antibody A-IgG1 control; Antibody-A with non-modified IgG1

Peak Width [6]: 2.7 min | Retention Time [7]: 79.6 min
B3: Antibody A IgG4PAA-YTE (antibody)
heavy: EVQLLESGGGLVQPGGSLRLSCAASGFTFSSFAMSWVRQAPGKGLEWVSAISGSGGSTYSADSVRGRFTISRDNSKNTLYLQMNSLRAEDTAVYYCAKDQGDWDFLFDYWGQGTLVTVSSASTKGPSVFPLAPCSRSTSESTAALGCLVKDYFPEPVTVSWNSGALTSGVHTFPAVLQSSGLYSLSSVVTVPSSSLGTKTYTCNVDHKPSNTKVDKRVESKYGPPCPPCPAPEAAGGPSVFLFPPKPKDTLYITREPEVTCVVVDVSQEDPEVQFNWYVDGVEVHNAKTKPREEQFNSTYRVVSVLTVLHQDWLNGKEYKCKVSNKGLPSSIEKTISKAKGQPREPQVYTLPPSQEEMTKNQVSLTCLVKGFYPSDIAVEWESNGQPENNYKTTPPVLDSDGSFFLYSRLTVDKSRWQEGNVFSCSVMHEALHNHYTQKSLSLSLGK
light: B2 light
notes: VH and VL matched to Antibody A; Positions are Fc numbering as printed (EU index implied)

Peak Width [6]: 2.8 min | Retention Time [7]: 80.3 min
B4: Antibody A IgG1-YTE (antibody)
heavy: EVQLLESGGGLVQPGGSLRLSCAASGFTFSSFAMSWVRQAPGKGLEWVSAISGSGGSTYSADSVRGRFTISRDNSKNTLYLQMNSLRAEDTAVYYCAKDQGDWDFLFDYWGQGTLVTVSSASTKGPSVFPLAPSSKSTSGGTAALGCLVKDYFPEPVTVSWNSGALTSGVHTFPAVLQSSGLYSLSSVVTVPSSSLGTQTYICNVNHKPSNTKVDKRVEPKSCDKTHTCPPCPAPELLGGPSVFLFPPKPKDTLYITREPEVTCVVVDVSHEDPEVKFNWYVDGVEVHNAKTKPREEQYNSTYRVVSVLTVLHQDWLNGKEYKCKVSNKALPAPIEKTISKAKGQPREPQVYTLPPSREEMTKNQVSLTCLVKGFYPSDIAVEWESNGQPENNYKTTPPVLDSDGSFFLYSKLTVDKSRWQQGNVFSCSVMHEALHNHYTQKSLSLSPGK
light: B2 light
